In one assay the target is human CD81 (human) (UniProt P60033). In words: cell-based or functional assay.
In assay [1] the target is HCV E2 glycoprotein of genotype 1a (hepatitis C virus genotype 1a) (UniProt P27958). In words: cell-based or functional assay.

The source of these data is patent EP1454989A1.

Substance JS-81 anti-CD81 monoclonal antibody had an inhibition of infection by HCVpp of genotypes 1a and 1b (target cells pre-incubated with antibody at 30 µg/ml) in the assay with human CD81 (human) above 90%.

In turn, “recombinant GST-fusion polypeptide encompassing the large extra-cellular loop (LEL) of human CD81 (from UniProt P60033 113-201)” showed an inhibition of infectivity of HCVpp on Huh-7 cells (polypeptide at 4, 8, 16 µg/ml pre-incubated with the pseudo-particles) in assay [1] of 38 to 54%.
